# Source: patent US20260242440A1, “NOVEL MEANS TO MODULATE NMDA RECEPTOR-MEDIATED TOXICITY” (FUNDAMENTAL PHARMA GMBH, priority 2018, published 2026)
# “Also recorded” adds a separate entry of the source.
# B1: SEQ ID NO:47: fragment of mouse TRPM4, amino acid residues 347-689 (protein, listed as Mus musculus)
# chain: LQAQVERIMTRKELLTVYSSEDGSEEFETIVLRALVKACGSSEASAYLDELRLAVAWNRVDIAQSELFRGDIQWRSFHLEASLMDALLNDRPEFVRLLISHGLSLGHFLTPVRLAQLYSAVSPNSLIRNLLDQASHASSSKSPPVNGTVELRPPNVGQVLRTLLGETCAPRYPARNTRDSYLGQDHRENDSLLMDWANKQPSTDASFEQAPWSDLLIWALLLNRAQMAIYFWEKGSNSVASALGACLLLRVMARLESEAEEAARRKDLAATFESMSVDLFGECYHNSEERAARLLLRRCPLWGEATCLQLAMQADARAFFAQDGVQSLLTQKWWGEMDSTTP
# B2: SEQ ID NO:53: corresponds to SEQ ID NO:47 but comprises additionally a membrane-anchor (GPI) (protein)
# chain: LQAQVERIMTRKELLTVYSSEDGSEEFETIVLRALVKACGSSEASAYLDELRLAVAWNRVDIAQSELFRGDIQWRSFHLEASLMDALLNDRPEFVRLLISHGLSLGHFLTPVRLAQLYSAVSPNSLIRNLLDQASHASSSKSPPVNGTVELRPPNVGQVLRTLLGETCAPRYPARNTRDSYLGQDHRENDSLLMDWANKQPSTDASFEQAPWSDLLIWALLLNRAQMAIYFWEKGSNSVASALGACLLLRVMARLESEAEEAARRKDLAATFESMSVDLFGECYHNSEERAARLLLRRCPLWGEATCLQLAMQADARAFFAQDGVQSLLTQKWWGEMDSTTPLENGGTSLSEKTVLLLVTPFLAAAWSLHP
# modifications: GPI membrane anchor; Fusion protein of SEQ ID NO: and SEQ ID NO:57
# B3: SEQ ID NO:48: fragment of mouse TRPM4, amino acid residues 690-1036 (protein, listed as Mus musculus)
# chain: IWALLLAFFCPPLIYTNLIVFRKSEEEPTQKDLDFDMDSSINGAGPPGTVEPSAKVALERRQRRRPGRALCCGKFSKRWSDFWGAPVTAFLGNVVSYLLFLLLFAHVLLVDFQPTKPSVSELLLYFWAFTLLCEELRQGLGGGWGSLASGGRGPDRAPLRHRLHLYLSDTWNQCDLLALTCFLLGVGCRLTPGLFDLGRTVLCLDFMIFTLRLLHIFTVNKQLGPKIVIVSKMMKDVFFFLFFLCVWLVAYGVATEGILRPQDRSLPSILRRVFYRPYLQIFGQIPQEEMDVALMIPGNCSMERGSWAHPEGPVAGSCVSQYANWLVVLLLIVFLLVANILLLNLLI
# B4: SEQ ID NO:49: fragment of mouse TRPM4, amino acid residues 1037-1213 (protein, listed as Mus musculus)
# chain: AMFSYTFSKVHGNSDLYWKAQRYSLIREFHSRPALAPPLIIISHVRLLIKWLRRCRRCRRANLPASPVFEHFRVCLSKEAERKLLTWESVHKENFLLAQARDKRDSDSERLKRTSQKVDTALKQLGQIREYDRRLRGLEREVQHCSRVLTWMAEALSHSALLPPGAPPPPSPTGSKD
# B5: SEQ ID NO:50: fragment of mouse TRPM4, amino acid residues 347-467 (protein, listed as Mus musculus)
# chain: LQAQVERIMTRKELLTVYSSEDGSEEFETIVLRALVKACGSSEASAYLDELRLAVAWNRVDIAQSELFRGDIQWRSFHLEASLMDALLNDRPEFVRLLISHGLSLGHFLTPVRLAQLYSAVS
# B6: SEQ ID NO:51: fragment of mouse TRPM4, amino acid residues 468-548 (protein, listed as Mus musculus)
# chain: SLGHFLTPVRLAQLYSAVSPNSLIRNLLDQASHASSSKSPPVNGTVELRPPNVGQVLRTLLGETCAPRYPARNTRDSYLGQDHRENDSLLMDWANKQPST
# B7: SEQ ID NO:52: fragment of mouse TRPM4, amino acid residues 536-648 (protein, listed as Mus musculus)
# chain: SYLGQDHRENDSLLMDWANKQPSTDASFEQAPWSDLLIWALLLNRAQMAIYFWEKGSNSVASALGACLLLRVMARLESEAEEAARRKDLAATFESMSVDLFGECYHNSEERAARLLLRRCPLWG
# Test system: primary mouse hippocampal neurons
# Test: NMDA induced cell death (excitotoxicity) in cultured primary neurons
# Type: cell-based
# Settings: for protection from NMDA induced excitotoxicity by knockdown of TRPM4: rAAV shRNA infection DIV3, NMDA 20 μM 10 min on DIV15-16, analysis 24 h later; for protection against NMDA induced cell death (neuroprotective effect): polypeptide expressed via rAAV infection on DIV3, NMDA 20 μM for 10 min, cell death assessed 24 h later
# Procedure: Primary mouse hippocampal and cortical neurons were prepared and maintained as known. Briefly, hippocampi or cerebral cortex from P0 C57Bl/6NCrl mice were dissociated and plated at a density of 1.2*105/cm^2 in Growth Medium (GM), consisting of Neurobasal A medium (Gibco™, 10888022), 2% serum free B27™ Supplement (Gibco™, 17504044), 1% rat serum (Biowest, S2150), 0.5 mM L-Glutamine (Sigma, G7513) and 0.5% P-S. Cytosine β-D-arabinofuranoside (AraC; Sigma, C1768; 2.8 μM) was added on DIV3 to prevent the proliferation of glial cells. From DIV8, half of the medium was replaced by GM without Rat serum every 48 h until being used for experiments. 24 h before experiments, GM was replaced with transfection medium (10 mM HEPES, pH 7.4, 114 mM NaCl, 26.1 mM NaHCO3, 5.3 mM KCl, 1 mM MgCl2, 2 mM CaCl2, 30 mM glucose, 1 mM glycine, 0.5 mM C3H3NaO3, and 0.001% phenol red and 10% of phosphate-free Eagle's minimum essential medium, supplemented with 7.5 µg/ml insulin, 7.5 µg/ml transferrin and 7.5 ng/ml sodium selenite (ITS Liquid Media Supplement, Sigma-Aldrich Cat #I3146)). Primary hippocampal neurons were used in live cell imaging, cell death experiments, while cortical neurons were used for mRNA and protein extraction analysis.
# All viral particles were produced and purified as known in the art. All TRPM4 derived peptides (comprising SEQ ID NO:5, or any of SEQ ID NO:46 to SEQ ID NO:56) were cloned into rAAV backbone by PCR. shRNA against mouse TRPM4 were designed by BLOCK-iT™ RNAi Designer from Thermofisher to target: […] (SEQ ID NO:44, shTRPM4-1) and […] (SEQ ID NO:45, shTRPM4-2). Scramble shRNA (shSCR) has been tested and proven to have no known targets in mice. GPI anchor ([…], e.g. used in SEQ ID NO:53) sequences were synthesized by Eurofins Genomics (Ebersberg, Germany). All primers were synthesized and all plasmids were confirmed by sequencing by Eurofins Genomics.
# In order to investigate the role of TRPM4 in NMDA receptor mediated excitotoxicity, the inventors used RNA interference strategies to knock down TRPM4. Cultured primary mouse hippocampus neurons were infected on day 3 in vitro (DIV3) with recombinant adeno-associated viruses (rAAVs) providing for expression of a scramble control (shSCR), shTRPM4-1 (SEQ ID NO:44) or shTRPM4-2 (SEQ ID NO:45). On DIV15-16, neurons were challenged with N-methyl-D-aspartate (NMDA, 20 μM) for 10 min. After NMDA wash out, neurons were kept in the culture medium for another 24 h before analysis. […] Evidently, TRPM4 is thus involved in the process of NMDA receptor mediated excitotoxicity.
# In a next step, the inventors tried to identify regions in the mouse TRPM4 protein potentially involved in NMDA receptor mediated excitotoxicity. For this purpose, polypeptide fragments of mouse TRPM4 protein were generated and their impact on NMDA induced excitotoxicity analysed. To do so, primary neuron cultures were infected with respective rAAVs on DIV3, challenged with NMDA (20 μM) for 10 min on DIV17 and cell death assessed 24 hours later.
# The sequence of SEQ ID NO:5 in TRPM4 is located in vivo just beneath the plasma membrane. […] To test this hypothesis, the inventors created a fusion protein comprising SEQ ID NO:5 and a GPI anchor, SEQ ID NO:57. The sequence of the fusion is given in SEQ ID NO:53. Neurons infected with rAAV and expressing SEQ ID NO:47 (control) or SEQ ID NO:53 were exposed to NMDA (20 μM) for 10 min on DIV15-16, with cell death assessed after 24 h.
# In a next step, the inventors created a mutant of SEQ ID NO:5, in which two adjacent phenylalanine residues where substituted by tyrosine residues (SEQ ID NO: 54). […] TRPM5 is a protein related to but nonetheless distinct to TRPM4. The region in TRPM5 corresponding to SEQ ID NO:5, SEQ ID NO:55, shares only about 60% sequence identity with SEQ ID NO:5. Neurons were infected on DIV3 with rAAVs expressing SEQ ID NO: 5, SEQ ID NO: 54 or SEQ ID NO:55 and exposed to NMDA (20 μM) for 10 min on DIV17, with cell death assessed 24 h later. […]
Molecule,protection from NMDA induced excitotoxicity by knockdown of TRPM4,protection against NMDA induced cell death (neuroprotective effect)
"shTRPM4-1: shRNA against mouse TRPM4 targeting ggacatcgcccaaagtgaact, expressed from rAAV (guide GGACAUCGCCCAAAGUGAACU; listed as Mus musculus)",significantly protected neurons,–
"SEQ ID NO:46: fragment of mouse TRPM4, amino acid residues 1-346",–,only SEQ ID NO:47 is neuroprotective
"shTRPM4-2: shRNA against mouse TRPM4 targeting gcatccagagagggttcattc, expressed from rAAV (guide GCAUCCAGAGAGGGUUCAUUC; listed as Mus musculus)",significantly protected neurons,–
B1,–,contains a neuroprotective element
B2,–,can increase the ability to protect neurons from excitotoxicity; also recorded: increased the protective effects
B3,–,only SEQ ID NO:47 is neuroprotective
B4,–,only SEQ ID NO:47 is neuroprotective
B5,–,only SEQ ID NO:5 is neuroprotective
B6,–,only SEQ ID NO:5 is neuroprotective
B7,–,only SEQ ID NO:5 is neuroprotective
